Measurements taken from patent US12037419B2 (The Feinstein Institutes for Medical Research, priority 2016, dated 2024).

Legend:
RAGE and LAIR-1 = target: T1, RAGE and LAIR-1 (Homo sapiens, UniProt Q15109+Q6GTX8); assay: Proximity ligation assay (PLA) for colocalization of RAGE and LAIR-1 on monocytes; format: cell-based
T1 construct: endogenous in cells; host or cells: primary human monocytes from blood of healthy donors
Experimental: Cells were then incubated overnight with a primary antibody pair directed to rabbit anti-RAGE (ab3611, Abcam) and to mouse anti-LAIR-1 (BD Bioscience), respectively. The cells were incubated with corresponding PLA probes conjugated to oligonucleotides (mouse MINUS and rabbit PLUS), then followed by ligation and rolling circle amplification in close proximity. Images were acquired using an AxioImage Z1 (Zeiss) apotome enabled (Zeiss) Fluorescent-intensity analysis of the images was performed using Zen2 (Zeiss).
Immunofluorescence Microscopy: In situ proximal ligation assay was performed according to manufacturer's protocol (Duolink, Sigma). Following stimulation, human monocytes were washed three times with ice-cold PBS and were fixed with 4% (wt/vol) PFA for 1 hour at room temperature, seeded (2×10^5 cells) on slides using cytospin (Shandon), permeablized with chilled MeOH for 4 min and with PBS/0.1% (vol/vol) Triton X-100 and blocked for 1 h at room temperature. Cells were then incubated overnight with a primary antibody pair directed to rabbit anti-RAGE (ab3611, Abcam) and to mouse anti-LAIR-1 (BD Bioscience), respectively. The cells were incubated with corresponding PLA probes conjugated to oligonucleotides (mouse MINUS and rabbit PLUS), then followed by ligation and rolling circle amplification in close proximity. […] Quantification was performed using Zen2 (Zeiss). […]

HMGB1 = target: T2, HMGB1 (Homo sapiens, UniProt P09429); assay: SPR assay of HMGB1 and C1q binding, including redox states of HMGB1
T2 construct: made in house
T2 sequence (P09429 1-215): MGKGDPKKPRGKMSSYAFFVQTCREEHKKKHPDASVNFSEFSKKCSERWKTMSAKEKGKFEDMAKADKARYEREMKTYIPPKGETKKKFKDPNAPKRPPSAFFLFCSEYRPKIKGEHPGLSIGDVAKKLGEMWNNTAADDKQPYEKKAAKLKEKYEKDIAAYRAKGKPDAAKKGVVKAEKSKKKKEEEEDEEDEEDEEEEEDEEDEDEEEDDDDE
Experimental: Surface Plasmon Resonance analysis (SPR): For real-time binding interaction studies, a BIAcore T200 instrument (GE Healthcare) was used. […] A 1:1 mixture of N-hydroxysuccinimide and N-ethyl-N-(dimethyaminopropyl) carbodiimide was used to activate 2 flow-cells of the CMS chip. […] The analytes were diluted in 1×PBS+0.01% (vol/vol) tween-20 buffer. The analytes were sequentially injected at a flow rate of 30 μl/min for 60 s at 25° C. The KD was dertermined using the BIAcore evaluation software 2.0 (GE Healthcare) supposing a 1:1 binding ratio.
A 1:1 mixture of N-hyrdoxysuccinimide and N-ethyl-N-(dimethyaminopropyl) carbodiimide was used to activate 2 flow-cells of the CMS chip. […] The analyte (HMGB1) was diluted in 1×HBS-N+0.05% tween-20 buffer (filtered—0.22 um). Three redox states of HMGB1 were sequentially injected at a flow rate of 20 μl/min for 60 s at 25° C., the dissociation time was set for 3 minutes. The concentration was set at 500 nM.
The analytes were diluted in 1×HBS-N+0.05% tween-20 buffer (filtered—0.22 um). The analytes were sequentially injected at a flow rate of 20 μl/min for 60 s at 25° C. The dissociation time was set for 3 minutes. The KD for each analyte was determined using the Biacore evaluation software 2.0 supposing a 1:1 binding ratio.

human monocytes = assay: CpG- or LPS-induced cytokine transcription in monocytes; format: cell-based
Experimental: Monocyte isolation and stimulation: Human PBMCs were obtained following institutional guidelines of the Feinstein Institute for Medical Research (Feinstein) and isolated from blood of healthy donors by density centrifugation (New York Blood Bank). Monocytes were negatively enriched using a human monocyte enrichment kit (Stem Cell Technology). Purity of monocytes (≥90% CD11b+CD14+LAIR-1+) was determined by flow cytometry. […] Splenic murine monocytes from wild type mice, RAGE deficient or LAIR-1 conditional knockout mice were isolated using EasySep mouse monocyte enrichment kit (Stem Cell Technology). C57BL/6 mice, Lysozyme2-Cre transgenic mice were purchased from Jackson Laboratory. Myeloid specific LAIR-1 conditional knockout mice (Lysozyme2-Cre×LAIR fl/fl) were bred and maintained in our facility (Feinstein) under specific pathogen-free conditions. RAGE deficient mice (Department of Medicine, Karolinska Institute Stockholm, Sweden) were maintained at Feinstein. Eight-to ten weeks old male mice were used for experiments. […]
RT-PCR analysis and primers: Total RNA was extracted from cells (1-2×10^6 cells per sample) with an RNeasy kit (Qiagen, Venlo, Limburg, Netherlands) and cDNA was generated using an iScript cDNA synthesis kit (Bio-Rad laboratories). […] The relative induction was calculated by 2-ΔΔCt.

T1 sequence (Q15109 23-404): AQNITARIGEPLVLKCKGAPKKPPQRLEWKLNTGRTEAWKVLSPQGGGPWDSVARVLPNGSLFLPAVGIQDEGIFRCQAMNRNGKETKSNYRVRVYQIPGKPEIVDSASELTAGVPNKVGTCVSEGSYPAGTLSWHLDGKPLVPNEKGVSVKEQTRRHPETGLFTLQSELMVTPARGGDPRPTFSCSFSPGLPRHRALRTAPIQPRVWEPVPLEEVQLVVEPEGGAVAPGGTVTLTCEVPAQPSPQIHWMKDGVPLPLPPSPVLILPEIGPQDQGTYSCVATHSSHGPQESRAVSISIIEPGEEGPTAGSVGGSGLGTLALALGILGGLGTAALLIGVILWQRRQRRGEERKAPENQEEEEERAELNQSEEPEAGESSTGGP
T1 sequence (Q6GTX8 22-287): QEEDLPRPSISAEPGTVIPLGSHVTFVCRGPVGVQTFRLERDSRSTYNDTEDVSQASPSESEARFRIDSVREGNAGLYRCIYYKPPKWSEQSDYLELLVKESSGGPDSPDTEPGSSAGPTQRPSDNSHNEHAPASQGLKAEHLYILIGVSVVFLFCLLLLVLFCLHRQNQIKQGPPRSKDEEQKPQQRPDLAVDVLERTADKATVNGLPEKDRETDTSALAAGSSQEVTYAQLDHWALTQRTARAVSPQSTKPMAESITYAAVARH

C1q: C1q purified from pooled normal human sera, obtained from Complement Technology
RAGE-LAIR-1 colocalization (PLA fluorescence) (RAGE and LAIR-1; C1q with or without HMGB1): only detected in the presence of C1q
RAGE-LAIR-1 cross-linking with C1q co-incubated with LAIR-2 (RAGE and LAIR-1; data not shown): negated the cross-linking of RAGE and LAIR-1
binding to different redox states of HMGB1 (HMGB1; disulfide, all thiol, oxidized HMGB1): preferentially binding to the disulfide form of HMGB1
Kd (HMGB1; read-out: KD of HMGB1 and C1q binding, 25° C., 1:1 binding ratio supposed): 200 nM
CpG-mediated induction of pro-inflammatory cytokines and IFN inducible genes (human monocytes; CpG 2216): inhibits CpG-mediated induction of pro-inflammatory cytokines
LPS-induced cytokine transcription (human monocytes; LPS): no effect on LPS-induced cytokine transcription
